Data as given in IntAct's records for PubMed 22580824.

B1: ADP-ribosylation factor 6 (Homo sapiens), P62330 (parent)
chain: MGKVLSKIFGNKEMRILMLGLDAAGKTTILYKLKLGQSVTTIPTVGFNVETVTYKNVKFNVWDVGGQDKIRPLWRHYYTGTQGLIFVVDCADRDRIDEARQELHRIINDREMRDAIILIFANKQDLPDAMKPHEIQEKLGLTRIRDRNWYVQPSCATSGDGLYEGLTWLTSNYKS
partner: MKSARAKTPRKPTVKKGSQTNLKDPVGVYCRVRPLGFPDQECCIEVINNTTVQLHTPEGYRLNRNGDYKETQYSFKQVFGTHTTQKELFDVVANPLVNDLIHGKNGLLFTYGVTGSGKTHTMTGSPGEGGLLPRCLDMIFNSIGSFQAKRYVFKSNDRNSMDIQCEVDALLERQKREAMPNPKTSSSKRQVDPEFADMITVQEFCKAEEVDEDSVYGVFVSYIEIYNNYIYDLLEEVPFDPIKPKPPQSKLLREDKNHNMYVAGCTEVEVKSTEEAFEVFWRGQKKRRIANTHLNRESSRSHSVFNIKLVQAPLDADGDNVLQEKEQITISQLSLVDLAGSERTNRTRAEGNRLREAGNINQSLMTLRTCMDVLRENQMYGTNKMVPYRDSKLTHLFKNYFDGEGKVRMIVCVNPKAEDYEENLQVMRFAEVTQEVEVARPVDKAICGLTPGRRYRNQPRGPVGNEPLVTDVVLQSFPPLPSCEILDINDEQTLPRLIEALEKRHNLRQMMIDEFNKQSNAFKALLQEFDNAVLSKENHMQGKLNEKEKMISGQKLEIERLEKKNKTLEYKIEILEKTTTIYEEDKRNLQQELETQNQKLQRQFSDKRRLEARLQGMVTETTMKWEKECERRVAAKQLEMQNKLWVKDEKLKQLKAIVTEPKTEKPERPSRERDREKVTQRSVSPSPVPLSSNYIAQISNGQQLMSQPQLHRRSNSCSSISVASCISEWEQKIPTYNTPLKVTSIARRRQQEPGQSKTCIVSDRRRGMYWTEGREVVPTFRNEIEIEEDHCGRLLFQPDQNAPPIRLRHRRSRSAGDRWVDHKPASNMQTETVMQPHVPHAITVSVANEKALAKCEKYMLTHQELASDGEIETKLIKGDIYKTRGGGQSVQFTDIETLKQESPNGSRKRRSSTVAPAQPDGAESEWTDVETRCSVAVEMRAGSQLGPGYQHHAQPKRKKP
B2: Kinesin-like protein KIF23 (Homo sapiens), Q02241 (parent)
chain: B1 partner
B3: Kinesin-like protein KIF23 (Homo sapiens), Q02241 (parent)
chain: B1 partner
partner: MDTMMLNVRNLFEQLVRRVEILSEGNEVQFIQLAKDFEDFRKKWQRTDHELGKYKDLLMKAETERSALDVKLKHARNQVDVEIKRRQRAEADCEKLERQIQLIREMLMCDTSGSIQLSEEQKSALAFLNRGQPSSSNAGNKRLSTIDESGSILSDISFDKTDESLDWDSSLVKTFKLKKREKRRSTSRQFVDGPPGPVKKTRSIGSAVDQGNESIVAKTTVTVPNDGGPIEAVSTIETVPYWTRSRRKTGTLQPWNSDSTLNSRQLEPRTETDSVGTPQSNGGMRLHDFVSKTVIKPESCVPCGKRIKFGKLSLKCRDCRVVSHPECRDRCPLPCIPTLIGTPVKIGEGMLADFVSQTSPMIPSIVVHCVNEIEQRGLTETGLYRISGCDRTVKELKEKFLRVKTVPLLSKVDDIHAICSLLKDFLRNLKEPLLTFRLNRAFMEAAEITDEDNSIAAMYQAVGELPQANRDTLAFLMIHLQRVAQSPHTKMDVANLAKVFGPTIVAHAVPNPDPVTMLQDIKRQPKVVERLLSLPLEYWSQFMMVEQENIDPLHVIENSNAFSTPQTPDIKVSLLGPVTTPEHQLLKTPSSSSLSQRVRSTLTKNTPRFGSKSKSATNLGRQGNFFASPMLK

Variants of: B1
Conditions: with kif23_human KIF23, Q02241

effect of a mutation on the interaction | Variant
disrupting interaction | T27N

Variants of: B2
Conditions: with arf6_human ARF6, P62330

effect of a mutation on the interaction | Variant
disrupting interaction | Q863A

Variants of: B2
Conditions: with arf6_human ARF6, P62330
Remark: another data set of the same source

effect of a mutation on the interaction | Variant
decreasing interaction | Q863A

Variants of: B2
Conditions: with arf6_human ARF6, P62330
Remark: another data set of the same source

effect of a mutation on the interaction | Variant
disrupting interaction | Y858A

Variants of: B2
Conditions: with arf6_human ARF6, P62330
Remark: another data set of the same source

effect of a mutation on the interaction | Variant
disrupting interaction | K877A

Variants of: B2
Conditions: with arf6_human ARF6, P62330
Remark: another data set of the same source

effect of a mutation on the interaction | Variant
decreasing interaction | K877A

Variants of: B2
Conditions: with arf6_human ARF6, P62330
Remark: another data set of the same source

effect of a mutation on the interaction | Variant
disrupting interaction | T779A

Variants of: B2
Conditions: with arf6_human ARF6, P62330
Remark: another data set of the same source

effect of a mutation on the interaction | Variant
decreasing interaction | T779A

Variants of: B2
Conditions: with arf6_human ARF6, P62330
Remark: another data set of the same source

effect of a mutation on the interaction | Variant
disrupting interaction | L794A

Variants of: B2
Conditions: with arf6_human ARF6, P62330
Remark: another data set of the same source

effect of a mutation on the interaction | Variant
disrupting interaction | V890A

Variants of: B2
Conditions: with arf6_human ARF6, P62330
Remark: another data set of the same source

effect of a mutation on the interaction | Variant
decreasing interaction | V890A

Variants of: B2
Conditions: with arf6_human ARF6, P62330
Remark: another data set of the same source

effect of a mutation on the interaction | Variant
disrupting interaction | L860A

Variants of: B2
Conditions: with arf6_human ARF6, P62330
Remark: another data set of the same source

effect of a mutation on the interaction | Variant
decreasing interaction | L860A

Variants of: B2
Conditions: with arf6_human ARF6, P62330
Remark: another data set of the same source

effect of a mutation on the interaction | Variant
disrupting interaction | E864A

Variants of: B2
Conditions: with arf6_human ARF6, P62330
Remark: another data set of the same source

effect of a mutation on the interaction | Variant
disrupting interaction | T873A

Variants of: B2
Conditions: with arf6_human ARF6, P62330
Remark: another data set of the same source

effect of a mutation on the interaction | Variant
decreasing interaction | T873A

Variants of: B2
Conditions: with arf6_human ARF6, P62330
Remark: another data set of the same source

effect of a mutation on the interaction | Variant
disrupting interaction | F892A

Variants of: B2
Conditions: with arf6_human ARF6, P62330
Remark: another data set of the same source

effect of a mutation on the interaction | Variant
disrupting interaction | E896A

Variants of: B3
Conditions: with rgap1_human RACGAP1, Q9H0H5

effect of a mutation on the interaction | Variant
increasing interaction | V890A

Variants of: B3
Conditions: with rgap1_human RACGAP1, Q9H0H5
Remark: another data set of the same source

effect of a mutation on the interaction | Variant
increasing interaction | S814A
